The subject of the series is CpxR-R195H (Klebsiella pneumoniae HS11286 (ST11)?). Briefly: ITC. The note with it: EMSA: Beyotime binding buffer (poly(dI-dC), DTT, glycerol, EDTA, NaCl, MgCl2, Tris), room temp, 2 pmol probe; footprinting: 50 mM Tris-HCl pH 8.0, 100 mM KCl ….

Regarding PblaKPC (Tn1721, ST11), unlabeled, the binding signal (fold lower affinity than wild type) is 100.

The record behind these values is paper PMC10524804.
